Where two headings read alike, the source gives them in different places.
Assays:
FGFR-2b = biological target: T1, FGFR-2b (Homo sapiens, UniProt P21802); experiment: BiaCore binding kinetics; conditions: BiaCore kinetic analysis
T1 construct: purchased R&D Systems

FGFR-1(IIIc) [1] = biological target: T2, FGFR-1(IIIc) (Homo sapiens, UniProt P11362); experiment: ELISA blocking assay (receptor binding to immobilized FGF); parameters: purchased R&D Systems
Procedure: Recombinant FGFs (R&D systems, Minneapolis, Minn.) were coated on Immulon® 2B microtiter plates (ThermoLab Systems, Franklin, Mass.) at concentrations of 0.5-2 μg/ml for 2 hrs. The plates were then washed with 0.2% Tween20/PBS, and blocked with 5% milk/PBS for 2 hrs before use. Phage or antibody was serially diluted with 5 μg/ml heparin (Sigma, St Louis, Mo.), 5% milk, PBS. Recombinant FGFR-1 (R&D Systems) was then added to a final concentration of 1 μg/ml. The mixture was incubated at room temperature for 1 hr before transfer to the FGF-2 coated plates, and incubated at room temperature for an additional 2 hrs. Plates were then washed 3 times with 0.2% Tween20/PBS. The bound receptors were detected using an anti-human Fc monoclonal antibody coupled with HRP (Pierce Biotechnology Inc., Rockford, Ill.) solution prepared according to supplier's instructions. Data were presented as % inhibition of ligand-receptor binding of the controls.

FGFR-1(IIIc) [2] = biological target: T2, FGFR-1(IIIc); experiment: ELISA binding assay; parameters: purchased R&D Systems
Procedure: (§1) Recombinant FGFRs (R&D systems) at a concentration of 1 μg/ml in PBS were coated on 96-well plates at room temperature for 2 hrs. The plates were washed 3 times with 0.2% Tween20/PBS, and blocked with 5% milk/PBS for 2 hrs before use. FR1-H7 or FR1-A1 was added to the plate and serially diluted in 0.2% Tween20/PBS. The plate was incubated at room temperature for 2 more hrs. The captured antibodies were detected using an anti-human light chain monoclonal antibody conjugated with […] (Pierce Biotechnology, Rockford, Ill.) solution prepared according to supplier's instructions.

FGFR-1 = biological target: T3, FGFR-1 (Homo sapiens, UniProt P11362); experiment: Phosphorylation assay in FGFR-1 expressing L6 cells (western blot); format: cell-based; conditions: anti-phospho-tyrosine western blot
T3 construct: expressed in transfected cells; host or cells: L6 (ATCC), pBABE retroviral vector
T3 sequence (P11362 22-822): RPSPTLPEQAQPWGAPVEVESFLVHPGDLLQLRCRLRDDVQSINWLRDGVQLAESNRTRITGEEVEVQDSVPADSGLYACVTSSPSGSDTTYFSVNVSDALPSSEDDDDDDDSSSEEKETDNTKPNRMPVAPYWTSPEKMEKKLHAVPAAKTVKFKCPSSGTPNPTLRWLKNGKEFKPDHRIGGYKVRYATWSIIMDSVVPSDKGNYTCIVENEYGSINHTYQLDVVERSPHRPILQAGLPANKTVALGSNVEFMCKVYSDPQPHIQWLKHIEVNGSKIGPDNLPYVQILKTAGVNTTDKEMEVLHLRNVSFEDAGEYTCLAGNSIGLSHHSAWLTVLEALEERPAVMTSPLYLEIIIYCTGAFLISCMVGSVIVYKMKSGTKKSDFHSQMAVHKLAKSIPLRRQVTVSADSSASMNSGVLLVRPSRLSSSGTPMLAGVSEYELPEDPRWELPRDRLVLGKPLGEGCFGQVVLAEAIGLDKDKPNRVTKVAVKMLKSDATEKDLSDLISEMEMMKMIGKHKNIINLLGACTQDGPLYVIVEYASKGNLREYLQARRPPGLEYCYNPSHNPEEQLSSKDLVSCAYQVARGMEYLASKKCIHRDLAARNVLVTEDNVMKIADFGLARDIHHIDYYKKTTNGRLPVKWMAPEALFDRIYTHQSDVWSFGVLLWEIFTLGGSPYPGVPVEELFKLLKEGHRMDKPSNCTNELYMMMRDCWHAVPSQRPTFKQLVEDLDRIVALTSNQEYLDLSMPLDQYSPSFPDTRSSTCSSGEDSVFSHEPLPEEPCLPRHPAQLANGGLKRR
Procedure: FGFR-1 expressing L6 cells were cultured in 10% FBS, DMEM, in a 24-well tissue culture plate till confluency. Cells were Serum starved in 5 μg/ml heparin, 0.1% FBS, DMEM, for 8-24 hrs. Either FR1-H7 or FR1-A1 was added to the media and allowed to bind with the cell surface receptors at 37° C. for 1 hr. Cells were then stimulated with 20 ng/ml FGFs at 37° C. for 10 min before they were lyzed using ice-cold lysis buffer for 30 min. Cell lysate was subjected to SDS-PAGE followed by western blot. Membranes were probed with anti-phospho-tyrosine antibody (Cell Signaling Technology, Inc., Beverly, Mass.) for detection of phosphorylated FGFR-1 receptors according to supplier's instructions.
The phosphorylation assay for small molecules is essentially the same as the phosphorylation assay described in Examples 7 and 15 and Phosphorylation Assay, except that small molecule compounds was used instead of FGFR-1 antibodies in all occasions. […] Equal amount of cell lysates were applied to each sample lane. Receptor auto-phosphorylation was probed using anti-phospho-tyrosine antibody as described in the original patent.

FGFR-1c = biological target: T4, FGFR-1c (Homo sapiens, UniProt P11362); experiment: BiaCore binding kinetics; conditions: kinetic analyses; read-out: KD, FGFR-1c
T4 construct: purchased R&D Systems
T4 sequence (P11362 22-822): as above

FGFR-3b = biological target: T5, FGFR-3b (Homo sapiens, UniProt P22607); experiment: BiaCore binding kinetics; conditions: BiaCore kinetic analysis
T5 construct: purchased R&D Systems
T5 sequence (P22607 23-808 isoform P22607-2 limits assumed): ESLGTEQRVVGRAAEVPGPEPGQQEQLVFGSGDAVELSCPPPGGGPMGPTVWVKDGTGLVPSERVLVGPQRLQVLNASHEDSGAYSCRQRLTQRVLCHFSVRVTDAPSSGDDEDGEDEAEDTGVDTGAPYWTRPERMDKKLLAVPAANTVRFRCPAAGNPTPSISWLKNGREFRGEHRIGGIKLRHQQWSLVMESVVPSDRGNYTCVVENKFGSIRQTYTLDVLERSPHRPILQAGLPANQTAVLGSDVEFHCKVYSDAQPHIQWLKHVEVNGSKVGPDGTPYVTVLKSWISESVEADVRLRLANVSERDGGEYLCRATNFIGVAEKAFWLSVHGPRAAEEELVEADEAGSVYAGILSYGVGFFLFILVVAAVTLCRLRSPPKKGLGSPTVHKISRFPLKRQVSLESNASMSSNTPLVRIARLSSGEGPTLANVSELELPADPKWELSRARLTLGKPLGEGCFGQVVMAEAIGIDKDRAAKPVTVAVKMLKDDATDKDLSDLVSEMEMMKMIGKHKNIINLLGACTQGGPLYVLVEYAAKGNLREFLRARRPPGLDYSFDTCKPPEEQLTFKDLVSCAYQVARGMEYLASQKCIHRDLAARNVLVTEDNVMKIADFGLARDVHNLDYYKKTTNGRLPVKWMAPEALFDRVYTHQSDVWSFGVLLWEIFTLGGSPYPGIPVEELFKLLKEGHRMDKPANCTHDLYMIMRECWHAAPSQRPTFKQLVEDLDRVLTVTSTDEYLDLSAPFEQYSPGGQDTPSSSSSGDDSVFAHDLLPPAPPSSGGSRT

other FGFRs = experiment: ELISA binding assay
Procedure: as §1

FGFR-4 = biological target: T6, FGFR-4 (Homo sapiens, UniProt P22455); experiment: ELISA binding assay
T6 construct: purchased R&D Systems
T6 sequence (P22455 22-802): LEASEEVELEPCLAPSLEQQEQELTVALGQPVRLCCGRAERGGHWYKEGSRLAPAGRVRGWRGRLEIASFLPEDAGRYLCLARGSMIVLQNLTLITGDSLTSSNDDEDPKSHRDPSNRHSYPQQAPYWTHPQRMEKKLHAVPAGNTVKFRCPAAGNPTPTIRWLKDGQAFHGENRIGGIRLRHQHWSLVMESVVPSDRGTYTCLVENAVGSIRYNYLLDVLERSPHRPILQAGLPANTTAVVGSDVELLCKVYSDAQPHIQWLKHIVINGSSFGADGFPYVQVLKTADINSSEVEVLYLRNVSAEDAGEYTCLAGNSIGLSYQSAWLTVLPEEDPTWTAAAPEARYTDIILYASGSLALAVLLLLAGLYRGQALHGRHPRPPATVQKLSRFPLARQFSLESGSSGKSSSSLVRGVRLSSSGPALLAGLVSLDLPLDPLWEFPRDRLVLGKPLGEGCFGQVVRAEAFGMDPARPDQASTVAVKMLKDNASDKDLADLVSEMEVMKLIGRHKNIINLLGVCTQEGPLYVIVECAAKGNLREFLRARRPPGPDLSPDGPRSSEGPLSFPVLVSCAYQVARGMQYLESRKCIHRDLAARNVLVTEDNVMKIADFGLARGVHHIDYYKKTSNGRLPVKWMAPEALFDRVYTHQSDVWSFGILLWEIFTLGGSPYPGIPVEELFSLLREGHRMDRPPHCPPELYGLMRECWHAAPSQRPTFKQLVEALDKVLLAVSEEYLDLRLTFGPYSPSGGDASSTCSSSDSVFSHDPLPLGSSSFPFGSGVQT
Procedure: as §1

FGFR-1b = biological target: T7, FGFR-1b (Homo sapiens, UniProt P11362); experiment: BiaCore binding kinetics; conditions: kinetic analyses
T7 construct: purchased R&D Systems

[3] = Repeated-dose study in female athymic nude mice: body weight, food intake, rearing, blood glucose; format: in vivo; conditions: for body weight loss compared to the control: day 5 after two treatments; for reduction of non-fast food intake: between first and second treatments
Procedure: Female athymic nude mice (Cr1:NU/NU-nuBR, Charles River Laboratories, Wilmington, Mass.) were housed 4-5 per cage. Mice were given autoclaved food (Lab Diet #5001, PMI Feeds Inc., St. Louis, Mo.) and water ad libitum. All animal use in this study was conducted in compliance with approved institutional animal care and use protocols, and according to NIH guidelines (Guide for the Care and Use of Laboratory Animals, NIH publication no. 86-23, 1985).
In one assay, mice were injected intraperitoneally (i.p.) with FR1-H7 at 0.19, 1.9, and 19 mg/kg body weight (n=5 per group). In another assay, mice were injected subcutaneously (s.c.) with the antibody, at 0.4, 4, and 40 mg/kg body weight. In control arms, mice were treated with saline i.p. or s.c. In addition, one group of mice was left untreated (n=4). All treatments were given at a volume of 10 μl/g body weight in Saline. Treatments were started on a Wednesday (Day 0) with additional treatments on the following Friday, Monday, Wednesday, and Friday. After this 9-day treatment period mice received no additional treatments.
Alternatively, female athymic nude mice were injected (i.p.) with saline, 2 mg/kg, or 20 mg/kg FR1-A1 on a Monday (Day 0) and Wednesday. Body weights were measured before the first injection, and on Day 2 and Day 5. Food intake per group was measured 2 days after the first injection.
The body weights of all animals were measured 3 times/week. Food consumption, behavior, and serum glucose were evaluated as follows. Food Intake Measurement: Prior to the treatment on Day 2 mice were placed in a new cage and the weight of the food container in the cage top was weighed. Prior to the treatment on Day 5 the weight of the food container was measured again. The difference in the Day 2 to Day 5 food container weight was divided by the number of mice per cage and the number of days between the measurements to give a food intake per mouse per 24 hrs. Activity Measurement: On Day 12, 3 days after the final treatment, mice were placed individually into a new cage and the number of rearings was counted over a 1 min period. Blood Glucose Measurement On Day 16, 7 days after the final treatment, non-fasted blood glucose was measured in blood collected from the tip of the tail using an Ascensia Elite XL blood glucose meter (glucose oxidase method, Bayer, Pittsburg, Pa.).

FGFR-2c = biological target: T8, FGFR-2c (Homo sapiens, UniProt P21802); experiment: BiaCore binding kinetics; conditions: BiaCore kinetic analysis
T8 construct: purchased R&D Systems
T8 sequence (P21802 22-821): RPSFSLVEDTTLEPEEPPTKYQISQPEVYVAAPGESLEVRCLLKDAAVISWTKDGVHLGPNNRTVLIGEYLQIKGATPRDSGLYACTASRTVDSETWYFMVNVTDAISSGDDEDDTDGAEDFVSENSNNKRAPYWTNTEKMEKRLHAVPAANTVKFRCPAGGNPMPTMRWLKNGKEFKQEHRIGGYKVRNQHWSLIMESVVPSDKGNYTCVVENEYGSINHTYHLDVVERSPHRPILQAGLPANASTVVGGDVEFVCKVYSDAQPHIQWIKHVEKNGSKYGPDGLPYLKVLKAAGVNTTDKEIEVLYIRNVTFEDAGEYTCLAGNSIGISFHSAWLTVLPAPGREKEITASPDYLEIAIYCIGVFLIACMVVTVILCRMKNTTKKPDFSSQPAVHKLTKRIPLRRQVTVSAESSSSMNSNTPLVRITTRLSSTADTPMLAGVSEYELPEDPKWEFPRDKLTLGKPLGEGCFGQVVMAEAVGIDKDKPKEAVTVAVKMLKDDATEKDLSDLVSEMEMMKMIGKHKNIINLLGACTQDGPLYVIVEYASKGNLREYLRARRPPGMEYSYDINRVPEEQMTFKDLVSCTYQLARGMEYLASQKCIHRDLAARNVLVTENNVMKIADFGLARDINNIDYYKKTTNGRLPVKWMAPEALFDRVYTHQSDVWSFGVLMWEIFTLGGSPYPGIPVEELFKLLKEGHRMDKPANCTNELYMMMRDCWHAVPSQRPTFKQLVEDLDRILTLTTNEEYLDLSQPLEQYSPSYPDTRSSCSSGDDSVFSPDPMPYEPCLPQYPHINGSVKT

[4] = tested on: Human astrocytoma G18 cells; experiment: Mitogenesis assay (3H-thymidine); format: cell-based; conditions: FGF-2 stimulation
Procedure: Human astrocytoma G18 cells were seeded in 96-well tissue culture plates at a concentration of 5×10^4 cells/ml. After attachment, cells were quiesced for 24 hrs in RPMI media (Invitrogen) containing 0.1% FBS and 5 μg/ml heparin. Antibodies were serially diluted, added to the wells, and incubated with the cells at 37° C. for 1 hr. Recombinant FGF-2 was then added to a final concentration of 5 ng/ml. Cells were cultured in an incubator at 37° C. with 5% CO2. Cell growth was determined 24 hrs later by monitoring ^3H-thymidine incorporation as described previously.

FGFR-3c = biological target: T9, FGFR-3c (Homo sapiens, UniProt P22607); experiment: BiaCore binding kinetics; conditions: BiaCore kinetic analysis
T9 construct: purchased R&D Systems
T9 sequence (P22607 23-806): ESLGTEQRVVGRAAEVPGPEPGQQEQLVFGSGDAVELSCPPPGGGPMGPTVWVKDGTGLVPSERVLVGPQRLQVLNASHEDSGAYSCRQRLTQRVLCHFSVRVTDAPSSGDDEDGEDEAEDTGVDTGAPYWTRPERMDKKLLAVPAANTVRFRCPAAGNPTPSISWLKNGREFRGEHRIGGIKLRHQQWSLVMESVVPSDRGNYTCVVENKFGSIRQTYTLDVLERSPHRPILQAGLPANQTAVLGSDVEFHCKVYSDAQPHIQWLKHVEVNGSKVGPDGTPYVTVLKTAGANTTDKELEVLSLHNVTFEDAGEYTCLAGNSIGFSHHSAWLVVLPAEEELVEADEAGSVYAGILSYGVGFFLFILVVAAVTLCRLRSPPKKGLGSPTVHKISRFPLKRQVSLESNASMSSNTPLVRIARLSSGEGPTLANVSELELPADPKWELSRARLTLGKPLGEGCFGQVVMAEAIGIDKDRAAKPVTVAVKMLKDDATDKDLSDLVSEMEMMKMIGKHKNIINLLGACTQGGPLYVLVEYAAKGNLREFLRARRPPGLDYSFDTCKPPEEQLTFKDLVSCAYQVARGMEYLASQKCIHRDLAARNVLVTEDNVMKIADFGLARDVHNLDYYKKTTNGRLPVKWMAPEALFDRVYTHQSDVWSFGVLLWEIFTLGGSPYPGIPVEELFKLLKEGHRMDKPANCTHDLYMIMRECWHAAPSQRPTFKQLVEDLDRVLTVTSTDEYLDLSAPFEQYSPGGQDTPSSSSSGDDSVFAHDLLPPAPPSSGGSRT

T2 sequence (P11362 22-822): as the sequence (P11362 22-822) above
T1 sequence (P21802 22-822 isoform P21802-3 limits assumed): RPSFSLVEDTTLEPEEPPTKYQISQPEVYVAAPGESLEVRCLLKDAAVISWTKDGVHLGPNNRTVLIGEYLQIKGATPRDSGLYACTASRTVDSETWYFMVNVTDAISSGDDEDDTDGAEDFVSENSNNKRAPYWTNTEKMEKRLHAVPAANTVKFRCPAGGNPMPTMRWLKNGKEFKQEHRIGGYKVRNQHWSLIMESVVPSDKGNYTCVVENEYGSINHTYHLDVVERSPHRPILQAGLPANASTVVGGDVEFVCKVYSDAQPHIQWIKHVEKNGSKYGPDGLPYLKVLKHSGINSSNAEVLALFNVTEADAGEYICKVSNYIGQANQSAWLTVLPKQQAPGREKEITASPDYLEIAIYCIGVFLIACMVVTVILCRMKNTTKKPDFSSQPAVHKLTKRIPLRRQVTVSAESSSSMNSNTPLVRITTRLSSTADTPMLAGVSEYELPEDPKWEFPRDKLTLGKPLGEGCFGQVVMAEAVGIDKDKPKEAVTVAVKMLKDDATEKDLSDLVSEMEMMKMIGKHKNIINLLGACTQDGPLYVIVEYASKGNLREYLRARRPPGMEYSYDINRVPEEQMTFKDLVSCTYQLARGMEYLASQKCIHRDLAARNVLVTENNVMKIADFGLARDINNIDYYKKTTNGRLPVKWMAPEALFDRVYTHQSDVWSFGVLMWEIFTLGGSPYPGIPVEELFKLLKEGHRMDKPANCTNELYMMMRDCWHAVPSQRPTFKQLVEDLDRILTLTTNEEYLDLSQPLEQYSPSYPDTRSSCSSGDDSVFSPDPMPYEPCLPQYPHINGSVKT

Kd (FGFR-2b): > 10000 nM
IC50 (FGFR-1(IIIc) [1]; immobilized FGF-1, read-out: IC50, blocking FGFR-1(IIIc) binding to FGF-1): ~5 nM
IC50 (FGFR-1(IIIc) [1]; immobilized FGF-2, read-out: IC50, blocking FGFR-1(IIIc) binding to FGF-2): ~10 nM
binding to FGFR-1(IIIc) (FGFR-1(IIIc) [2]): strong binding affinity
inhibition of ligand (FGF) mediated receptor phosphorylation (FGFR-1; antibody): significantly inhibits
receptor activation by the antibody by itself (FGFR-1; no ligand): does not activated the receptor
Kd (FGFR-1c): 0.7 nM
Kd (FGFR-3b): > 10000 nM
binding to the other FGFRs (other FGFRs): little binding
binding to FGFR-4 (FGFR-4): moderate affinity
Kd (FGFR-1b): > 10000 nM
Kd (FGFR-2c): > 10000 nM
Kd (FGFR-3c): > 10000 nM
B1: FR1-A1: antibody specific for FGFR-1(IIIc) and/or FGFR-4(IIIc); VH/VL SEQ ID NOS:15, 16 (antibody, listed as Homo sapiens, V domains shown)
VH: MAQVQLVQSGAEVKKPGSSVKVSCKASGQTFTGYYMHWVRQAPGQGLEWMGRIIPILGIANYAQKFQGRVTITADKSTSTAYMELSSLRSEDTAVYYCARGGDLGGMDVWGQG
VL: LEIVLTQSPLSLPVTPGEPASISCRSSQSLRHSNGYNYLDWYLQKPGQSPQLLIYLASNRASGVPDRFSGSGSGTDFTLKISRVEAEDVGVYYCMQALQIPPTFGPGTKVDIKRTVAA
body weight loss compared to the control ([3]; 2 mg/kg i.p.): ~9%
reduction of non-fast food intake ([3]; 2 mg/kg): ~14%
body weight loss compared to the control ([3]; 20 mg/kg i.p.): ~23%
reduction of non-fast food intake ([3]; 20 mg/kg): ~44%
FGF-2 stimulated DNA synthesis (mitogenesis) of G18 cells [4]: decreased this stimulation in a dose-dependant manner

From patent publication US8263074B2, “Fibroblast growth factor receptor-1 inhibitors and methods of treatment thereof” (ImClone LLC, priority 2003, dated 2012)
